Assay results published in patent US20220275088A1 (published 2022).
Each block holds one binder with its values, some of them ahead of it.

Experiments:
Cyno PD1 = test: flow cytometry
[1] = target: T1, soluble PD-1 (biotinylated PD-1; expi293 expressed soluble PD1-avi) (UniProt Q15116 25-170, biotinylated (Avidity's biotinylation kit, avi tag) where loaded on SA sensors or used to stain yeast); test: yeast display flow cytometry
[2] = target: T1, soluble PD-1 (biotinylated PD-1; …); test: ELISA; variable antigen coating
[3] = target: T1, soluble PD-1 (biotinylated PD-1; …); test: ELISA; constant antigen coating
[4] = target: human PD-1 on cells (transfected Expi293 cells, PHA-cultured T cells, cells of the Promega PD1-PDL1 bioassay, … (UniProt Q15116 25-288)); test: flow cytometry
human PD-1 on cells (transfected Expi293 cells, PHA-cultured T cells, cells of the Promega PD1-PDL1 bioassay, …, sequence (Q15116 25-288): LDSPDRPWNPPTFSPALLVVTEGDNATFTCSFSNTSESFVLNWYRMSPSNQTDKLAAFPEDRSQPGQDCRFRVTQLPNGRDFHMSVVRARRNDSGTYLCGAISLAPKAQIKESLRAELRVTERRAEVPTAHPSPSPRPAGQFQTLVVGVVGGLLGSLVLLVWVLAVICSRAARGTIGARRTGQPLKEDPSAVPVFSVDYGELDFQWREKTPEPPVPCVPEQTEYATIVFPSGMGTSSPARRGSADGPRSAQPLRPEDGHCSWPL

T1 sequence (Q15116 25-170): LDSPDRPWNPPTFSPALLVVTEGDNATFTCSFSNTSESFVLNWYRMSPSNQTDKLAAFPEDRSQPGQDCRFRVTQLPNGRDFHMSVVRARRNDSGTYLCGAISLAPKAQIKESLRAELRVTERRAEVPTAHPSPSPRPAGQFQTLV

B1: P4#B3 (Fc fusion)
VH: QVQLVQSGGGLVQPGRSLRLSCAASGFTFDDYAMHWVRQAPGKGLEWVSGISWNSGSIGYADSVKGRFTVSRDNAKNSLYLQMNSLRAEDTAVYYCASDYGDKYYYYGMDVWGKGTTVTVSS
VL: QPGLTQPPSASGTPGQRVTISCSGSSSNIGSNTVNWYQQFPGKAPKLLIFNDNQRPSGVPDRFSASKSGTSASLAISGLQSEDEADYYCAAWDGGLNGRGVFGGGTKLTVL
EC50 (Cyno PD1): 0.072 µg/mL

B3: P4-B3 IgG1 wild type monomer (antibody, V domains shown)
VH: B1 VH
VL: QPGLTQPPSASGTPGQRVTISCSGSSSNIGSNTVNWYQQFPGKAPKLLIFNDNQRPSGVPDRFSASKSGTSASLAISGLQSEDEADYYCAAWDGGLNGRGVFGGGTKLTVLG
EC50 [2]: 0.514 µg/mL | EC50 [3]: 0.0407 µg/mL

Other lines, results leading:

EC50 [1]: 101 nM
B2: P4-B3 scFv (scFv, V domains shown)
VH: B1 VH
VL: B1 VL

EC50 [4]: 0.097 µg/mL
B4: P4-B3 minibody (scFv-Fc) (Fc fusion)
VH: B1 VH
VL: B1 VL
